Measurements as given in patent US20240376170A1 (BRIGHT PEAK THERAPEUTICS, published 2024).
Bridges are numbered along the chain shown (N, C = ends). Primed or numbered codes have the meaning given here. [ ]: non-standard residue; d: D form. Ygp(4) = Tyr with amino-capped PEG8 (O-(8x polyethylene glycol-amino)-tyrosine); Yn3(4) = Tyr with azide-capped PEG9 (O-(9x polyethylene glycol-azido)-tyrosine); Ygp″ = O-(8x polyethylene glycol-amino)-tyrosine; Yn3″ = O-(9x polyethylene glycol-azido)-tyrosine; PEG4′ = 4x polyethylene glycol; PEG9′ = 9x polyethylene glycol; hSer = N[C@@H](CCO)C(=O)O; Nle = CCCC[C@H](N)C(=O)O

T1: IL-2 receptor βγ complex (human, UniProt P14784 27-551; P31785 23-369)
T1 sequence (looked up) 1: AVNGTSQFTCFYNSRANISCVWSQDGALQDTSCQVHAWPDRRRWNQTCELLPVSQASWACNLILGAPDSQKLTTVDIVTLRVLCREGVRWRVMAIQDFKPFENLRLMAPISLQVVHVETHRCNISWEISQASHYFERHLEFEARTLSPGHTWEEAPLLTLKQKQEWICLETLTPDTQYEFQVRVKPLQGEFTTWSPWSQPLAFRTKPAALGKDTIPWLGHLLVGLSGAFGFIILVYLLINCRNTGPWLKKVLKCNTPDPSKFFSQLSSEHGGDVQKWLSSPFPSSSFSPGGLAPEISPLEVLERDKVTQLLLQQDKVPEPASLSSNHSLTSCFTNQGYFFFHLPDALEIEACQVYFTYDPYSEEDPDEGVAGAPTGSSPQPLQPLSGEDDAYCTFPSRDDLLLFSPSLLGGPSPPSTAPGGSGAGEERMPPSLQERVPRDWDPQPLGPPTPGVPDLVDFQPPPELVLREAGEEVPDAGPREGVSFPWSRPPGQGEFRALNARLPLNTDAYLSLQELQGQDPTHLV
T1 sequence (looked up) 2: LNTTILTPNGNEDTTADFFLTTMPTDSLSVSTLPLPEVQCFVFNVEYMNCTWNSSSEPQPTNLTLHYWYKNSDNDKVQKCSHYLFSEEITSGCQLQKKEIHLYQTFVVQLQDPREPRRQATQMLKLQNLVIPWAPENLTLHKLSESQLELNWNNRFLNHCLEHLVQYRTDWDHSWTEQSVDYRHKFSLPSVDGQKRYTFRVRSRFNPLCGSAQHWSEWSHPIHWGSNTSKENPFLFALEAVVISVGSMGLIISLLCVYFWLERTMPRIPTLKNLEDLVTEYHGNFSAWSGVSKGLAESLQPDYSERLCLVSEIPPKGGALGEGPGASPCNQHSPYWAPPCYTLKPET


Target: T1, IL-2 receptor βγ complex
Assay: cell-based or functional assay

Binder | Average EC50, pSTAT5 Assay (T cells)
CMP-155 (ligand, linker N-29 via GPLGLAG‑PEG9) APTSSSTKKTQLQLEHLLLDLQ[Nle]ILNGIENYKNPKLTR[Nle]L[hSer][Yn3″]KF[Ygp″][Nle]PKKATELKHLQCLEEELKPLEEVL[hSer]LAQSKNFHLRPRDLISNINVIVLELKGSETTF[hSer]CEYADETATIVEFLNRWITFSQSIISTLT | 10.7 nM
CMP-157 (ligand, linker N-25 via PEG4′) PLGLAGAPTSSSTKKTQLQLEHLLEDLQ[Nle]ILNGINNYKNPKLTR[Nle]L[hSer][Yn3″]KF[Ygp″][Nle]PKKATELKHLQCLEEELKPLEEVL[hSer]LAQSKNFHLRPRDLISNINVIVLELKGSETTF[hSer]CEYADETATIVEFLNRWITFSQSIISTLT | 54.5 nM
CMP-158, MMP2 cleaved molecule (ligand, not fully specified; ends and bridges not checked; also: MMP2 cleaved, cleavage site and linker fragments on N-terminus and Glu22 side chain not given here) APTSSSTKKTQLQLEHLLLDLE[Nle]ILNGINNYKNPKLTR[Nle]L[hSer][Yn3(4)]KF[Ygp(4)][Nle]PKKATELKHLQCLEEELKPLEEVL[hSer]LAQSKNFHLRPRDLISNINVIVLELKGSETTF[hSer]CEYADETATIVEFLNRWITFSQSIISTLT | 1.95 nM
CMP-158 (ligand, bridge N-30; not fully specified (bridges); ends not checked) GPLGLAG[PEG4′]APTSSSTKKTQLQLEHLLLDLE[Nle]ILNGINNYKNPKLTR[Nle]L[hSer][Yn3(4)]KF[Ygp(4)][Nle]PKKATELKHLQCLEEELKPLEEVL[hSer]LAQSKNFHLRPRDLISNINVIVLELKGSETTF[hSer]CEYADETATIVEFLNRWITFSQSIISTLT | 36.6 nM
CMP-155, MMP2 cleaved molecule (ligand, not fully specified; also: cleaved by MMP2, cleavage product not defined, N-terminal PEG9 link and Glu29 side-chain attachment of the cleavable peptide not defined) APTSSSTKKTQLQLEHLLLDLQ[Nle]ILNGIENYKNPKLTR[Nle]L[hSer][Yn3″]KF[Ygp″][Nle]PKKATELKHLQCLEEELKPLEEVL[hSer]LAQSKNFHLRPRDLISNINVIVLELKGSETTF[hSer]CEYADETATIVEFLNRWITFSQSIISTLT | 2.9 nM
CMP-156, MMP2 cleaved molecule (ligand, not fully specified; also: MMP2 cleaved, cleavage site and linker fragments on N-terminus and Glu19 side chain not given here) APTSSSTKKTQLQLEHLLEDLQ[Nle]ILNGINNYKNPKLTR[Nle]L[hSer][Yn3″]KF[Ygp″][Nle]PKKATELKHLQCLEEELKPLEEVL[hSer]LAQSKNFHLRPRDLISNINVIVLELKGSETTF[hSer]CEYADETATIVEFLNRWITFSQSIISTLT | 21.3 nM
CMP-154 (ligand, linker N-35 via PEG9′) PLGLAGAPTSSSTKKTQLQLEHLLLDLQ[Nle]ILNGIENYKNPKLTR[Nle]L[hSer][Yn3″]KF[Ygp″][Nle]PKKATELKHLQCLEEELKPLEEVL[hSer]LAQSKNFHLRPRDLISNINVIVLELKGSETTF[hSer]CEYADETATIVEFLNRWITFSQSIISTLT | 24.7 nM
CMP-154, MMP2 cleaved molecule (ligand, not fully specified (bridges); also: MMP2 cleaved, site not given here) PLGLAGAPTSSSTKKTQLQLEHLLLDLQ[Nle]ILNGIENYKNPKLTR[Nle]L[hSer][Yn3″]KF[Ygp″][Nle]PKKATELKHLQCLEEELKPLEEVL[hSer]LAQSKNFHLRPRDLISNINVIVLELKGSETTF[hSer]CEYADETATIVEFLNRWITFSQSIISTLT | 4.2 nM
CMP-156 (ligand, linker N-19 via GPLGLAG‑PEG4) APTSSSTKKTQLQLEHLLEDLQ[Nle]ILNGINNYKNPKLTR[Nle]L[hSer][Yn3″]KF[Ygp″][Nle]PKKATELKHLQCLEEELKPLEEVL[hSer]LAQSKNFHLRPRDLISNINVIVLELKGSETTF[hSer]CEYADETATIVEFLNRWITFSQSIISTLT | 86 nM
CMP-157, MMP2 cleaved molecule (ligand, not fully specified (bridges); also: MMP2 cleaved, site not given here) PLGLAGAPTSSSTKKTQLQLEHLLEDLQ[Nle]ILNGINNYKNPKLTR[Nle]L[hSer][Yn3″]KF[Ygp″][Nle]PKKATELKHLQCLEEELKPLEEVL[hSer]LAQSKNFHLRPRDLISNINVIVLELKGSETTF[hSer]CEYADETATIVEFLNRWITFSQSIISTLT | 10 nM

Continued, values first:

Average EC50, pSTAT5 Assay (T cells) | Binder
2.21 nM | CMP-160, MMP2 cleaved molecule (ligand, not fully specified; ends and bridges not checked; also: MMP2 cleaved, cleavage site and linker fragments on N-terminus and Glu26 side chain not given here) APTSSSTKKTQLQLEHLLLDLQ[Nle]ILEGINNYKNPKLTR[Nle]L[hSer][Yn3(4)]KF[Ygp(4)][Nle]PKKATELKHLQCLEEELKPLEEVL[hSer]LAQSKNFHLRPRDLISNINVIVLELKGSETTF[hSer]CEYADETATIVEFLNRWITFSQSIISTLT
2.79 nM | CMP-162 (ligand, ends and bridges not checked; also: further groups not given here) APTSSSTKKTQLQLEHLLLDLQKILNGINNYKNPKLTR[Nle]L[hSer][Yn3(4)]KF[Ygp(4)][Nle]PKKATELKHLQCLEEELKPLEEVL[hSer]LAQSKNFHLRPRDLISNINVIVLELKGSETTF[hSer]CEYADETATIVEFLNRWITFSQSIISTLT
27.8 nM | CMP-160 (ligand, bridge N-34; not fully specified (bridges); ends not checked) GPLGLAG[PEG9′]APTSSSTKKTQLQLEHLLLDLQ[Nle]ILEGINNYKNPKLTR[Nle]L[hSer][Yn3(4)]KF[Ygp(4)][Nle]PKKATELKHLQCLEEELKPLEEVL[hSer]LAQSKNFHLRPRDLISNINVIVLELKGSETTF[hSer]CEYADETATIVEFLNRWITFSQSIISTLT
35.5 nM | CMP-159 (ligand, bridge N-28; not fully specified (N-terminus, bridges); ends not checked) PLGLAGAPTSSSTKKTQLQLEHLLLDLE[Nle]ILNGINNYKNPKLTR[Nle]L[hSer][Yn3(4)]KF[Ygp(4)][Nle]PKKATELKHLQCLEEELKPLEEVL[hSer]LAQSKNFHLRPRDLISNINVIVLELKGSETTF[hSer]CEYADETATIVEFLNRWITFSQSIISTLT
29.4 nM | CMP-161 (ligand, bridge N-32; not fully specified (N-terminus, bridges); ends not checked) PLGLAGAPTSSSTKKTQLQLEHLLLDLQ[Nle]ILEGINNYKNPKLTR[Nle]L[hSer][Yn3(4)]KF[Ygp(4)][Nle]PKKATELKHLQCLEEELKPLEEVL[hSer]LAQSKNFHLRPRDLISNINVIVLELKGSETTF[hSer]CEYADETATIVEFLNRWITFSQSIISTLT
3.59 nM | CMP-161, MMP2 cleaved molecule (ligand, not fully specified (bridges); ends and bridges not checked; also: MMP2 cleaved, site not given here) PLGLAGAPTSSSTKKTQLQLEHLLLDLQ[Nle]ILEGINNYKNPKLTR[Nle]L[hSer][Yn3(4)]KF[Ygp(4)][Nle]PKKATELKHLQCLEEELKPLEEVL[hSer]LAQSKNFHLRPRDLISNINVIVLELKGSETTF[hSer]CEYADETATIVEFLNRWITFSQSIISTLT
2.27 nM | CMP-159, MMP2 cleaved molecule (ligand, not fully specified (bridges); ends and bridges not checked; also: MMP2 cleaved, site not given here) PLGLAGAPTSSSTKKTQLQLEHLLLDLE[Nle]ILNGINNYKNPKLTR[Nle]L[hSer][Yn3(4)]KF[Ygp(4)][Nle]PKKATELKHLQCLEEELKPLEEVL[hSer]LAQSKNFHLRPRDLISNINVIVLELKGSETTF[hSer]CEYADETATIVEFLNRWITFSQSIISTLT
